Like-named read-outs stand apart in the source and are kept apart here.
Legend:
Test in all cases: AUC
[1] = target: vMIP-II L13F (human herpesvirus-8)
[2] = target: vMIP-II L13F (human herpesvirus-8); remark: listed apart in the source
[3] = target: vMIP-II L13F (human herpesvirus-8); remark: listed apart in the source

vMIP-II L13F (natural protein)
Kd [1]: 41 µM
stoichiometry N [1]: 2
Kd [2]: 129 µM
Kd [3]: 0.74 µM

— article PMC2924879
